Test results taken from publication PMC12153337, “A temperature-driven DNA discrimination strategy to distinguish E. coli DNA and phage 5hmC-modified DNA” (Nucleic Acids Research, 2025).
Residue numbers refer to the chain shown, from its start. Names and notes keep the numbering of the source.

Legend:
[1] = target: the molecule itself; test: SEC; Superdex 200 HiLoad 26/600, PBS buffer, room temperature 22°C; size estimated from the elution volume
[2] = target: the molecule itself; test: native gel or EMSA; native gel electrophoresis of purified DexA after SEC, room temperature
[3] = target: the molecule itself; test: cryo-EM structure; single-particle cryo-EM, 2D classification of conformers; 5 μM, incubated at 37°C for 1 h
[4] = target: the molecule itself; test: SEC-MALS; Superdex 75 10/300 GL, 0.5 ml/min, 25°C

B1: bacteriophage T4 exonuclease DexA (enzyme, UniProt P04536 1-227, looked up)
chain: MFDFIIDFETMGSGEKAAVIDLAVIAFDPNPEVVETFDELVSRGIKIKFDLKSQKGHRLFTKSTIEWWKNQSPEARKNIAPSDEDVSTIDGIAKFNDYINAHNIDPWKSQGWCRGMSFDFPILVDLIRDIQRLNGVSENELDTFKLEPCKFWNQRDIRTRIEALLLVRDMTTCPLPKGTLDGFVAHDSIHDCAKDILMMKYALRYAMGLEDAPSEEECDPLSLPTKR
notes: DexA (dexA gene product), 3'-5' exonuclease of bacteriophage T4, amplified from the T4 genome; 26.0 kDa per monomer; Exists in a dimer-tetramer equilibrium that depends on temperature, so copies is left empty; also called ExoD; wild-type DexA; source: E. coli BL21(DE3), pET46, purified (Ni-NTA, SEC)
[1]
  stoichiometry N: ≥ 2
[2]
  stoichiometry N: 4
[3]
  stoichiometry N: 2

B2: DexA^S87A/D90A (enzyme, bacteriophage T4, UniProt P04536 1-227, looked up)
chain: B1 chain with S87A, D90A
notes: DexA of bacteriophage T4 with S87A and D90A, made by site-directed mutagenesis of the dexA plasmid; Full length is said of the native protein only; the mutant was made from the same plasmid; also called dimeric mutant; contact 2 mutant; source: E. coli BL21(DE3), pET46, purified (Ni-NTA, SEC)
[4]
  stoichiometry N: 2

B3: DexA^D181A/S72A (enzyme, bacteriophage T4, UniProt P04536 1-227, looked up)
chain: B1 chain with S72A, D181A
notes: DexA of bacteriophage T4 with D181A and S72A, made by site-directed mutagenesis of the dexA plasmid; Full length is said of the native protein only; the mutant was made from the same plasmid; also called contact 1 mutant; source: E. coli BL21(DE3), pET46, purified (Ni-NTA, SEC)
[4]
  binding result: binds
